Assay results taken from paper PMC6006169, “Conformational switching in the coiled-coil domains of a proteasomal ATPase regulates substrate processing” (Nature Communications, 2018).
Numbering of substitutions follows the chain as printed. Names may count otherwise. Values belong to the molecule of their own block, whether it stands above or below them.

Legend:
[1] = target: T1, PAN (proteasome-activating nucleotidase) (Methanocaldococcus jannaschii, UniProt Q58576, L73C/M87C); experiment: NADH-coupled ATP regenerating ATPase assay ([…] nm); format: biochemical; conditions: oxidized (tetrathionate): coiled-coil disulfide crosslinked C1 and C3, no saturation with ATP; pH 7.5, 37 °C, 20 mM MgCl2; original residue 73 not given
T1 construct: full-length, pRSETA, E. coli BL21(DE3)-RIL, heat precipitation, anion exchange and size exclusion; no tag mentioned; homohexamer

[2] = target: CC-OB domain fragment of PAN-M87C (subcomplex I) (Methanococcus jannaschii); experiment: cross-linking; PAN-M87C after partial trypsin proteolysis and gel filtration (Superose 12); fractions 1 and 3 in 1 mM tetrathionate 1 h at room temperature, desalted, non-reducing SDS-PAGE, silver stain
[3] = target: the molecule itself; experiment: cross-linking; disulfide cross-linking of engineered cysteines; 1 mM tetrathionate, 1-2 h, room temperature, 50 mM Tris pH 7.5 + 5% glycerol, no nucleotide, PAN at or below 0.25 mg/ml; desalted on G50, non-reducing SDS-PAGE, Coomassie, densitometry of monomers vs. dimers
purified protein = substrate: Nc1ncnc2c1ncn2[C@@H]1O[C@H](COP(=O)(O)OP(=O)(O)OP(=O)(O)O)[C@@H](O)[C@H]1O; experiment: purified protein; format: biochemical, Methanocaldococcus jannaschii; conditions: reduced (uncrosslinked), pH 7.5, 37 °C

T1 sequence (Q58576 whole entry L73C/M87C): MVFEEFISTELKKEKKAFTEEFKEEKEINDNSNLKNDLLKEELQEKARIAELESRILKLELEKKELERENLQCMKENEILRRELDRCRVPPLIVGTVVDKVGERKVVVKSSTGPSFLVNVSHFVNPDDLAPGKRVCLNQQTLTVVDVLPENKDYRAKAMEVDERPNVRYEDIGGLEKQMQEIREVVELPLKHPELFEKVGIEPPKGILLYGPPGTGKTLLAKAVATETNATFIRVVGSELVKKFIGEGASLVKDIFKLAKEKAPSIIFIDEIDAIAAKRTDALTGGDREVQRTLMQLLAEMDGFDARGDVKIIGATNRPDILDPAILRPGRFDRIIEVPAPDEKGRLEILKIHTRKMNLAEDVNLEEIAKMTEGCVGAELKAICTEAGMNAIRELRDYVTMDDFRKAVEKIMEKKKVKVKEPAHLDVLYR

Km [1]: > 3000 µM
Molecule: Nc1ncnc2c1ncn2[C@@H]1O[C@H](COP(=O)(O)OP(=O)(O)OP(=O)(O)O)[C@@H](O)[C@H]1O [ATP]

Molecule: CC-OB domain fragment of PAN-M87C (subcomplex I) (domain or fragment)
percent cross-linked dimers [2]: 100%

B1: PAN 59C (enzyme, Methanococcus jannaschii, UniProt Q58576 1-430, looked up)
chain: MVFEEFISTELKKEKKAFTEEFKEEKEINDNSNLKNDLLKEELQEKARIAELESRILKCELEKKELERENLQLMKENEILRRELDRMRVPPLIVGTVVDKVGERKVVVKSSTGPSFLVNVSHFVNPDDLAPGKRVCLNQQTLTVVDVLPENKDYRAKAMEVDERPNVRYEDIGGLEKQMQEIREVVELPLKHPELFEKVGIEPPKGILLYGPPGTGKTLLAKAVATETNATFIRVVGSELVKKFIGEGASLVKDIFKLAKEKAPSIIFIDEIDAIAAKRTDALTGGDREVQRTLMQLLAEMDGFDARGDVKIIGATNRPDILDPAILRPGRFDRIIEVPAPDEKGRLEILKIHTRKMNLAEDVNLEEIAKMTEGCVGAELKAICTEAGMNAIRELRDYVTMDDFRKAVEKIMEKKKVKVKEPAHLDVLYR
notes: Expressed from pRSETA; no tag named; source: E. coli BL21-DE3-RIL, purified (heat precipitation, anion exchange, size exclusion)
percent cross-linked [3]: 69% | Km (purified protein; 20 mM MgCl2, original residue 59 not given): 436 ± 29 µM

B2: PAN (proteasome-activating nucleotidase) (Methanocaldococcus jannaschii DSM 2661; L59C/L73C/M87C) (protein)
chain: B1 chain with L73C, M87C
notes: full-length, pRSETA, E. coli BL21(DE3)-RIL, heat precipitation, anion exchange and size exclusion; no tag mentioned; homohexamer
Km (purified protein; 20 mM MgCl2, original residues 73 and 59 not given): 580 ± 64 µM
